Assay results: publication PMC9944328 (Nature Communications, 2023)

How the values were obtained:
[1] = target: human full-length SSTR2 wild-type with SmBiT at the C-terminus (human) (UniProt P30874)
[2] = target: SSTR3 H192^45.51T (human) (UniProt P32745)
[3] = target: human full-length SSTR3 wild-type (human) (UniProt P32745)
[4] = target: SSTR2 V103^2.64N (human) (UniProt P30874)
[5] = target: SSTR2 T194^45.51H (human) (UniProt P30874)
[6] = target: SSTR3 N101^2.64V (human) (UniProt P32745)
[7] = target: SSTR2 T194^45.51A (human) (UniProt P30874)
[8] = target: SSTR2 W188^ECL3A (human) (UniProt P30874)
[9] = target: human full-length SSTR2 wild-type with SmBiT at the C-terminus (human) (UniProt P30874); remark: listed apart in the source
[10] = target: SSTR2 Y302^7.43A (human) (UniProt P30874)
[11] = target: SSTR2 F272^6.51A (human) (UniProt P30874)
[12] = target: SSTR2 Y205^5.35A (human) (UniProt P30874)
[13] = target: SSTR2 P286^ECL3A (human) (UniProt P30874)
[14] = target: SSTR2 K291^7.32A (human) (UniProt P30874)
[15] = target: SSTR2 I284^ECL3A (human) (UniProt P30874)
[16] = target: SSTR2 S285^ECL3A (human) (UniProt P30874)
[17] = target: SSTR2 F127^3.37A (human) (UniProt P30874)
[18] = target: SSTR2 L99^2.60A (human) (UniProt P30874)
[19] = target: SSTR2 N276^6.55A (human) (UniProt P30874)
[20] = target: SSTR2 T287^ECL3A (human) (UniProt P30874)
[21] = target: SSTR2 F294^7.35A (human) (UniProt P30874)
[22] = target: SSTR2 Q102^2.63A (human) (UniProt P30874)
[23] = target: SSTR2 S279^6.58A (human) (UniProt P30874)
[24] = target: SSTR2 I195^45.52A (human) (UniProt P30874)
[25] = target: SSTR2 F208^5.38A (human) (UniProt P30874)
[26] = target: human full-length SSTR2 wild-type (human) (UniProt P30874)
[27] = target: human full-length SSTR3 N101^2.64V (human) (UniProt P32745)
[28] = target: human full-length SSTR2 V103^2.64N (human) (UniProt P30874)
[29] = target: human full-length SSTR3 wild-type (human) (UniProt P32745); remark: listed apart in the source
[30] = target: human full-length SSTR3 H192^45.51T (human) (UniProt P32745)
[31] = target: human full-length SSTR2 T194^45.51H (human) (UniProt P30874)
Sequence of human full-length SSTR2 T194^45.51H (human) (P30874 whole entry T194H): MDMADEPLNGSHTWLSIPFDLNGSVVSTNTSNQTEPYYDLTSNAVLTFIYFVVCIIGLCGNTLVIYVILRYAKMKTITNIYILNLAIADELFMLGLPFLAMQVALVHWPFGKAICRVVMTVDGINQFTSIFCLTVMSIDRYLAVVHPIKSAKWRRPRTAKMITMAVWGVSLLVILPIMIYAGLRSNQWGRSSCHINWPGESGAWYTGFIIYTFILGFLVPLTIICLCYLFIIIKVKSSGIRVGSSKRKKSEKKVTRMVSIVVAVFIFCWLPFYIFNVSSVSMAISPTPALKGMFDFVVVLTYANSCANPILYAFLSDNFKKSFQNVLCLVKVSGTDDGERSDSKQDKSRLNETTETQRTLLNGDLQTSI

Sequence of human full-length SSTR3 wild-type (human) (P32745 whole entry): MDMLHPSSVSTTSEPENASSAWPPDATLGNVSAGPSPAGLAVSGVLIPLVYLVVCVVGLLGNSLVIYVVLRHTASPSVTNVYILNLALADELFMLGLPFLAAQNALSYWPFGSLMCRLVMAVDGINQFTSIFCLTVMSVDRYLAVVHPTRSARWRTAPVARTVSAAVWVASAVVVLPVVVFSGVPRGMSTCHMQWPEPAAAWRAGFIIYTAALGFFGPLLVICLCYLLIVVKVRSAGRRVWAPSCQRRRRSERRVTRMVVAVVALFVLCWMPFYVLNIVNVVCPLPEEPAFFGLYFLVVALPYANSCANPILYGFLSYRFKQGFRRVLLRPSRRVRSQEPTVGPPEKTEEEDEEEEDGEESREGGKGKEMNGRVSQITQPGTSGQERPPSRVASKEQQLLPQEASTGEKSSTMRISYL
Sequence of human full-length SSTR2 V103^2.64N (human) (P30874 whole entry V103N): as the sequence (P30874 whole entry T194H) above, with V103N, H194T counted along it
Sequence of human full-length SSTR3 N101^2.64V (human) (P32745 whole entry): as the sequence (P32745 whole entry) above
Sequence of human full-length SSTR3 H192^45.51T (human) (P32745 whole entry H192T): as the sequence (P32745 whole entry) above, with H192T counted along it
Sequence of human full-length SSTR2 wild-type with SmBiT at the C-terminus (human) (P30874 whole entry): as the sequence (P30874 whole entry T194H) above, with H194T counted along it
Sequence of human full-length SSTR2 wild-type (human) (P30874 whole entry): as the sequence (P30874 whole entry T194H) above, with H194T counted along it
Sequence of SSTR2 I195^45.52A (human) (P30874 whole entry I195A): as the sequence (P30874 whole entry T194H) above, with H194T, I195A counted along it
Sequence of SSTR2 Q102^2.63A (human) (P30874 whole entry Q102A): as the sequence (P30874 whole entry T194H) above, with Q102A, H194T counted along it
Sequence of SSTR2 S285^ECL3A (human) (P30874 whole entry S285A): as the sequence (P30874 whole entry T194H) above, with H194T, S285A counted along it
Sequence of SSTR2 N276^6.55A (human) (P30874 whole entry N276A): as the sequence (P30874 whole entry T194H) above, with H194T, N276A counted along it
Sequence of SSTR2 Y302^7.43A (human) (P30874 whole entry Y302A): as the sequence (P30874 whole entry T194H) above, with H194T, Y302A counted along it
Sequence of SSTR2 V103^2.64N (human) (P30874 whole entry V103N): as the sequence (P30874 whole entry T194H) above, with V103N, H194T counted along it
Sequence of SSTR2 T287^ECL3A (human) (P30874 whole entry T287A): as the sequence (P30874 whole entry T194H) above, with H194T, T287A counted along it
Sequence of SSTR3 N101^2.64V (human) (P32745 whole entry): as the sequence (P32745 whole entry) above
Sequence of SSTR2 T194^45.51A (human) (P30874 whole entry T194A): as the sequence (P30874 whole entry T194H) above, with H194A counted along it
Sequence of SSTR2 L99^2.60A (human) (P30874 whole entry L99A): as the sequence (P30874 whole entry T194H) above, with L99A, H194T counted along it
Sequence of SSTR3 H192^45.51T (human) (P32745 whole entry H192T): as the sequence (P32745 whole entry) above, with H192T counted along it
Sequence of SSTR2 F294^7.35A (human) (P30874 whole entry F294A): as the sequence (P30874 whole entry T194H) above, with H194T, F294A counted along it
Sequence of SSTR2 S279^6.58A (human) (P30874 whole entry S279A): as the sequence (P30874 whole entry T194H) above, with H194T, S279A counted along it
Sequence of SSTR2 K291^7.32A (human) (P30874 whole entry K291A): as the sequence (P30874 whole entry T194H) above, with H194T, K291A counted along it
Sequence of SSTR2 F208^5.38A (human) (P30874 whole entry F208A): as the sequence (P30874 whole entry T194H) above, with H194T, F208A counted along it
Sequence of SSTR2 T194^45.51H (human) (P30874 whole entry T194H): as the sequence (P30874 whole entry T194H) above
Sequence of SSTR2 W188^ECL3A (human) (P30874 whole entry W188A): as the sequence (P30874 whole entry T194H) above, with W188A, H194T counted along it
Sequence of SSTR2 F272^6.51A (human) (P30874 whole entry F272A): as the sequence (P30874 whole entry T194H) above, with H194T, F272A counted along it
Sequence of SSTR2 F127^3.37A (human) (P30874 whole entry F127A): as the sequence (P30874 whole entry T194H) above, with F127A, H194T counted along it
Sequence of SSTR2 I284^ECL3A (human) (P30874 whole entry I284A): as the sequence (P30874 whole entry T194H) above, with H194T, I284A counted along it
Sequence of SSTR2 P286^ECL3A (human) (P30874 whole entry P286A): as the sequence (P30874 whole entry T194H) above, with H194T, P286A counted along it
Sequence of SSTR2 Y205^5.35A (human) (P30874 whole entry Y205A): as the sequence (P30874 whole entry T194H) above, with H194T, Y205A counted along it

For octreotide (peptide), the EC50 of octreotide-induced cAMP inhibition (GloSensor, HEK293 cells expressing the receptor; Supplementary Table 5) [1] was 0.21 nM, the EC50 of octreotide-induced cAMP inhibition (GloSensor, HEK293 cells expressing the receptor; Supplementary Table 5) [2] was 21 nM and the EC50 of octreotide-induced cAMP inhibition (GloSensor, HEK293 cells expressing the receptor; Supplementary Table 5) [3] was 30.1 nM. The EC50 of octreotide-induced cAMP inhibition (GloSensor, HEK293 cells expressing the receptor; Supplementary Table 5) [4] was 0.23 nM, the EC50 of octreotide-induced cAMP inhibition (GloSensor, HEK293 cells expressing the receptor; Supplementary Table 5) [5] was 18.7 nM and the EC50 of octreotide-induced cAMP inhibition (GloSensor, HEK293 cells expressing the receptor; Supplementary Table 5) [6] was 1.33 nM. For the same substance, the EC50 of octreotide-induced cAMP inhibition (Gi signaling, GloSensor, HEK293 cells expressing the receptor) [7] was 48.5 nM, the EC50 of octreotide-induced cAMP inhibition (Gi signaling, GloSensor, HEK293 cells expressing the receptor) [8] was 0.32 nM and the EC50 of octreotide-induced cAMP inhibition (Gi signaling, GloSensor, HEK293 cells expressing the receptor) [9] was 0.46 nM. The EC50 of octreotide-induced cAMP inhibition (Gi signaling, GloSensor, HEK293 cells expressing the receptor) [10] was 79 nM, the EC50 of octreotide-induced cAMP inhibition (Gi signaling, GloSensor, HEK293 cells expressing the receptor) [11] was 322 nM and the EC50 of octreotide-induced cAMP inhibition (Gi signaling, GloSensor, HEK293 cells expressing the receptor) [12] was 0.92 nM. The EC50 of octreotide-induced cAMP inhibition (Gi signaling, GloSensor, HEK293 cells expressing the receptor) [13] was 0.62 nM, the EC50 of octreotide-induced cAMP inhibition (Gi signaling, GloSensor, HEK293 cells expressing the receptor) [14] was 5.46 nM and the EC50 of octreotide-induced cAMP inhibition (Gi signaling, GloSensor, HEK293 cells expressing the receptor) [15] was 1.91 nM. It also gave an EC50 of octreotide-induced cAMP inhibition (Gi signaling, GloSensor, HEK293 cells expressing the receptor) [16] of 0.69 nM, an EC50 of octreotide-induced cAMP inhibition (Gi signaling, GloSensor, HEK293 cells expressing the receptor) [17] of 1.93 nM and an EC50 of octreotide-induced cAMP inhibition (Gi signaling, GloSensor, HEK293 cells expressing the receptor) [18] of 1.25 nM. The EC50 of octreotide-induced cAMP inhibition (Gi signaling, GloSensor, HEK293 cells expressing the receptor) [19] was 35.1 nM, the EC50 of octreotide-induced cAMP inhibition (Gi signaling, GloSensor, HEK293 cells expressing the receptor) [20] was 0.6 nM and the EC50 of octreotide-induced cAMP inhibition (Gi signaling, GloSensor, HEK293 cells expressing the receptor) [21] was 190 nM. The EC50 of octreotide-induced cAMP inhibition (Gi signaling, GloSensor, HEK293 cells expressing the receptor) [22] was 66.8 nM, the EC50 of octreotide-induced cAMP inhibition (Gi signaling, GloSensor, HEK293 cells expressing the receptor) [23] was 1.17 nM and the EC50 of octreotide-induced cAMP inhibition (Gi signaling, GloSensor, HEK293 cells expressing the receptor) [24] was 6.58 nM. It also gave an EC50 of octreotide-induced cAMP inhibition (Gi signaling, GloSensor, HEK293 cells expressing the receptor) [25] of 6.42 nM, an octreotide induced cAMP inhibition (GloSensor, HEK293 cells, 1e-13 to 1e-06): EC50 of the fit WT-1 [26] of 208 pM and an octreotide induced cAMP inhibition (GloSensor, HEK293 cells, 1e-13 to 1e-06): EC50 of the fit WT-2 [26] of 208 pM. The octreotide induced cAMP inhibition (GloSensor, HEK293 cells, 1e-13 to 1e-06): EC50 of the fit N101V-1 [27] was 2.5 nM, the octreotide induced cAMP inhibition (GloSensor, HEK293 cells, 1e-13 to 1e-06): EC50 of the fit N101V-2 [27] was 1.33 nM and the octreotide induced cAMP inhibition (GloSensor, HEK293 cells, 1e-13 to 1e-06): EC50 of the fit V103N-1 [28] was 227 pM. For the same substance, the octreotide induced cAMP inhibition (GloSensor, HEK293 cells, 1e-13 to 1e-06): EC50 of the fit V103N-2 [28] was 227 pM, the octreotide induced cAMP inhibition (GloSensor, HEK293 cells, 1e-13 to 1e-06): EC50 of the fit WT-1 (SSTR3) [29] was 54.7 nM and the octreotide induced cAMP inhibition (GloSensor, HEK293 cells, 1e-13 to 1e-06): EC50 of the fit WT-2 (SSTR3) [29] was 30.1 nM. For the same substance, the octreotide induced cAMP inhibition (GloSensor, HEK293 cells, 1e-13 to 1e-06): EC50 of the fit H192T-1 [30] was 82.9 nM, the octreotide induced cAMP inhibition (GloSensor, HEK293 cells, 1e-13 to 1e-06): EC50 of the fit H192T-2 [30] was 21 nM and the octreotide induced cAMP inhibition (GloSensor, HEK293 cells, 1e-13 to 1e-06): EC50 of the fit T194H-1 [31] was 28.2 nM. The octreotide induced cAMP inhibition (GloSensor, HEK293 cells, 1e-13 to 1e-06): EC50 of the fit T194H-2 [31] was 28.2 nM.
